The record followed here is publication doi:10.1101/537159 (bioRxiv, 2019).

A value given as a limit tells only on which side of the number the result lay.

For assay [1], the target named is R719W human β-cardiac myosin 2-hep HMM (human, UniProt P12883 1-855; P08590 1-195; P10916 1-166, R719W). Nature of the assay: MST.
In assay [2] the target is D382Y human β-cardiac myosin 2-hep HMM (human, UniProt P12883 1-855; P08590 1-195; P10916 1-166, D382Y). Nature of the assay: MST.
D382Y human β-cardiac myosin 2-hep HMM, sequence (P12883 1-855 D382Y, chain 1 of 3): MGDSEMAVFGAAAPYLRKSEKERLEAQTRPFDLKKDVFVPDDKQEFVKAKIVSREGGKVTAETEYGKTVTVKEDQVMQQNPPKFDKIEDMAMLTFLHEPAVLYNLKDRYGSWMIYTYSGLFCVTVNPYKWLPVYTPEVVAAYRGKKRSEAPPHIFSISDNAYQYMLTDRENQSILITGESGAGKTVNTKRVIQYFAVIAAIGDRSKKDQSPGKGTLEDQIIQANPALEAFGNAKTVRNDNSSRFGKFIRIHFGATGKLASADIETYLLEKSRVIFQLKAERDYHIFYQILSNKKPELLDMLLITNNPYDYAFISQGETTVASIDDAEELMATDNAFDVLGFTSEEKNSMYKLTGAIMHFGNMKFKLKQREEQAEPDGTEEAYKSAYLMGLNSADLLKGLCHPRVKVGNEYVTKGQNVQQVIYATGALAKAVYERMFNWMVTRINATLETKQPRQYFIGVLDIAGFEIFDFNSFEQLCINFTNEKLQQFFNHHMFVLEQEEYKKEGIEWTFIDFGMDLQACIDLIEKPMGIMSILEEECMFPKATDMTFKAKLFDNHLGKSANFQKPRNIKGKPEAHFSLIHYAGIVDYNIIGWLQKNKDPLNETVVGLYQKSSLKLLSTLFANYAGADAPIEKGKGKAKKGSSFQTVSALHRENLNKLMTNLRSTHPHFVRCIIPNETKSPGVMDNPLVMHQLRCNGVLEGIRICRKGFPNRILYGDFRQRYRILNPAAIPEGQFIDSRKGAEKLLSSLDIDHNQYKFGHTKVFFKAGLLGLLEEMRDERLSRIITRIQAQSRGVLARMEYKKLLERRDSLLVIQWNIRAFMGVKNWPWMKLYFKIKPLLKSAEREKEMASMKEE
D382Y human β-cardiac myosin 2-hep HMM, sequence (P08590 whole entry, chain 2 of 3): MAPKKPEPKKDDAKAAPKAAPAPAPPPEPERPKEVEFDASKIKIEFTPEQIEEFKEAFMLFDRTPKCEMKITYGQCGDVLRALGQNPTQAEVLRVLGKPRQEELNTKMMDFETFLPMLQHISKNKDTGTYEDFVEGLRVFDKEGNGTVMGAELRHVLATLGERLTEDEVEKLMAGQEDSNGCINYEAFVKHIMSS
D382Y human β-cardiac myosin 2-hep HMM, sequence (P10916 whole entry, chain 3 of 3): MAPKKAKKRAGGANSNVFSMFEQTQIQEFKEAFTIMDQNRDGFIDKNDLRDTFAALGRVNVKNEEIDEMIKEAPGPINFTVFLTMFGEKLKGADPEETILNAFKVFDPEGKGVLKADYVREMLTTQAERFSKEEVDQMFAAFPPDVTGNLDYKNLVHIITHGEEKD

R719W human β-cardiac myosin 2-hep HMM, sequence (P12883 1-855 R719W, chain 1 of 3): as the sequence (P12883 1-855 D382Y, chain 1 of 3) above, with Y382D, R719W counted along it
R719W human β-cardiac myosin 2-hep HMM, sequence (P08590 whole entry, chain 2 of 3): as the sequence (P08590 whole entry, chain 2 of 3) above
R719W human β-cardiac myosin 2-hep HMM, sequence (P10916 whole entry, chain 3 of 3): as the sequence (P10916 whole entry, chain 3 of 3) above

B1: proximal S2 (amino acids 839-968) (domain or fragment, human, UniProt P12883 839-968, looked up)
chain: LLKSAEREKEMASMKEEFTRLKEALEKSEARRKELEEKMVSLLQEKNDLQLQVQAEQDNLADAEERCDQLIKNKIQLEAKVKEMNERLEDEEEMNAELTAKKRKLEDECSELKRDIDDLELTLAKVEKEK
As to B1, the “fold change of affinity against WT 2-hep HMM” value in assay [1] and in assay [2] was less than 2 fold in each case.
